T1: human GnRH receptor (human, UniProt P30968 1-328)
T1 construct: whole, on cells; Endogenous receptor on human cancer cell lines; also called GnRHR1; gonadotropin releasing hormone receptor
T1 sequence (looked up): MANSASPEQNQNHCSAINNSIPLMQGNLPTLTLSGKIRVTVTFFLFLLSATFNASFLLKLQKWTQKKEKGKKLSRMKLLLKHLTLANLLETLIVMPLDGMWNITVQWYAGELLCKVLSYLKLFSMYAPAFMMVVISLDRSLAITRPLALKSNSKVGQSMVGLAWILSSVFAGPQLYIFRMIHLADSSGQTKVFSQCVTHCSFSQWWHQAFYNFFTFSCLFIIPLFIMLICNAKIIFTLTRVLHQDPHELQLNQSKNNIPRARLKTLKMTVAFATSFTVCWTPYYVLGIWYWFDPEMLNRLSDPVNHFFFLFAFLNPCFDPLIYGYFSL

B1: synthetic peptide corresponding to the N-terminal 1-29 amino acid residues of human GnRH receptor (peptide)
peptide: MANSASPEQNQNHCSAINNSIPLMQGNLP
notes: Custom synthesized; also called 1-29 synthetic peptide; 1-29 peptide
B2: GHR-106 monoclonal antibody (antibody, V domains shown)
VH: QVQLKESGPGLVAPSQSLSITCTVSGFSLSRYSVHWVRQPPGKGLEWLGMIWGGGSTDYNSALKSRLSISKDNSKSQVFLKMNSLQTDDTAMYYCARGNDGYYSFAYWGQGTLVTVSS
VL: DIVMSQSPSSLAVSAGEKVTMSCKSSQSLLNSRTRKNYLAWYQQKPGQSPKLLIYWASTRESGVPDRFTGSGSGTDFTLTISSVQAEDLAVYYCKQSYNLYTFGGGTKLEIK
notes: Murine hybridoma monoclonal antibody raised against the KLH-coupled 1-29 peptide of human GnRH receptor; detected with goat anti-mouse IgG; also called ATCC PTA-10252
B3: GHR-103 monoclonal antibody (antibody, V domains shown)
VH: B2 VH
VL: B2 VL
notes: Murine monoclonal

Assays:
[1] = target: B2; test: competition cell ELISA, free peptide against GHR-106 on OC-3-VGH cells (FIG. 3B)
[2] = target: B1; test: ELISA on coated peptide
[3] = target: T1, human GnRH receptor; test: ELISA, microwells coated with 1-29 synthetic peptide or OC-3-VGH cancer cells, AP-labeled goat anti-mouse IgG
[4] = target: B1; test: ELISA on coated peptide (FIG. 2A)

Binder: B1
binding result [1]: binds

Binder: B2
binding result [2]: binds
Kd [3]: 2 nM

Binder: B3
binding result [4]: binds
